# From paper PMC2120827
# Target: GST-Sox17 (mouse, UniProt Q61473 24-366)
# Assay: EMSA
# Chain of GST-Sox17 (Q61473 24-366): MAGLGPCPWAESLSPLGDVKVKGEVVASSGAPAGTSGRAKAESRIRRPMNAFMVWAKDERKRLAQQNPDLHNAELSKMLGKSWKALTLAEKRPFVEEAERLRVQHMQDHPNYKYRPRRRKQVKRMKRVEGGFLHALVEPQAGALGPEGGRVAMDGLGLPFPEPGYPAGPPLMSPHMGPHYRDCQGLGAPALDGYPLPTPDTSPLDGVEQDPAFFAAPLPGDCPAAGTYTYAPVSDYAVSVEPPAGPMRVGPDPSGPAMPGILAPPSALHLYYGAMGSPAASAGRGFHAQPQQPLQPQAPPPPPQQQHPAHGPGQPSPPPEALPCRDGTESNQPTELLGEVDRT
binder,measurement,value
GCAGAACAATGGCGTTAGCTCGCCATTGTTCTG (structured_DNA) [SCS6],binding result,binds
